# Results reported in the RNAGym collection of RNA variant scans (doi:10.1073/pnas.2313332121).
# B1: TPR t1 (parent)
# chain: GACCAAUCUGCCCUCAGAGCUCGAGAACAUCUUCGGAUGCAGAGGAGGCAGGCUUCGGUGGCGCGAUAGCGCCAACGUCCUCAACCUCCAAUGCAUCCCACCACAUGAUGAUGCCUGAAGAGCCUUGGUUUUUUG
# Variants of: B1
# Experiment: polymerase ribozyme fitness, log enrichment relative to wild type (log ratio); higher = more active; in vitro selection for triplet polymerase activity
# How it was run: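 Each subunit of a heterodimeric triplet polymerase ribozyme was mutagenized into a library by PCR, transcribed, and subjected to one round of in vitro selection, run in triplicate. Libraries were annealed with a biotinylated primer, the partner subunit and triplets, incubated frozen at −7 °C, and extended constructs were gel-excised, captured on streptavidin beads and recovered by RT-PCR. Input and output libraries were sequenced on Illumina, keeping genotypes with ≥10 input reads and ≥1 read per output. Fitness is log base 2 of genotype enrichment divided by wild-type enrichment, from inverse-variance-weighted replicate averages.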
row,Variant,polymerase ribozyme fitness (log ratio)
1,GACCAAUCUGCCCUCAGAGCUCGAGAACAUCUUCGGAUGCAGAGGAGGCAUGCUUCGGUGGCGCGAUAGCGCCAACGUCCUCAACCUUCAAUGCAUCCCACCACAUGAUGAUCCCUGAAGAGCCUUGGUUUUUUG,-5.71
2,GACCAAUCUGCCCUCAGAGCUCGAGAACAUCUUCGGAUGCAGAGGAGGCAUGCUUCGGUGGCGCGAUAGCGCCAACGUCCUCAAUCUCCAAUGCAUCCCACCACAUGAUGAUGCCUGAAGAGCCUUGGUUUUUUG,-4.37
3,GACCAAUCUGCCCUCAGAGCUCGAGAACAUCUUCGGAUGCAGAGGAGGCAGACUUCGGUGGCGCGAUAGUGCCAACAGUCUCAACCUCCAAUGCAUCCCACCACAUGAUGAUGCCUUAAGAGCCUUGGUUUUUUG,-3.69
4,GACCAAUCUGCCCUCAGAGCUCGAGAACAUCUUCGGAUGCAGAGGAGGCAUGCUUCGGUGGCGCGAUAGCGCCAACGUCCUCAACCUCCAAUGCAUCCCACCACAUGAUAAUGCCUGAAGAGCCUUGGUUUAUUG,-5.7
5,GACCAAUCUGCCCUCAGAGCUCGAGAACAUCUUCGGAUGCAGAGGAGGCAGAAUUCGGUGGCGCGAUAGCGCCAACAUCCUCAUCCUCCAAUGCAUCCCACCACAUGAUGAUGCCUGAAGAACCUUGGUUUUUUG,-2.24
6,GACCAAUCUGCCCUCAGAGCUCGAGAACAUCUUCGGAUGCAGAGGAGGCAUGCUUCGGUGGCGCGAUAGCGCCAACGUCCUCAACCUCCAAUGCAUUCCACCACAUGAUGAUGCCUGAAGAGCCUUGGUUUAUUG,-2.51
7,GACCAAUCUGCCCUCAGAGCUCGAGAACAUCUUCGGAUGCAGAGGAGGCAUGCUUCGGUGGCGCGAUAGCGACAACGUCCUCAACCUCCAAUGCAUCCCACCACAAGAUGAUGCCUGAAGAGCCUUGGUUUUUUG,-3.24
8,GACCAAUCUGCCCUCAGAGCUCGAGAACAUCUUCGGAUGCAGAGGAGGCAUGCUUCGGUGGCGCGAUAGCGCCAACGGCCUCAACCUCCAAUGCAUCCCACCACAUGAUGACGCCUGAAGAGACUUGGUAUUUUG,-3.11
9,GACCAAUCUGCCCUCAGAGCUCGAGAACAUCUUCGGAUGCAGAGGAGGCAUGCUUCGGUCGCGCGAUAGCGCCAACGUCCUCAACCUCCAAUGCAUCCCACCACAUGAUGAUGCCUGAAGAGCCUUGGUUUUUUG,-2.36
10,GACCAAUCUGCCCUCAGAGCUCGAGAACAUCUUCGGAUGCAGAGGAGGCAUGCUUCGGUGACGUGAUAGCGCCAACGUCCUCAACCUCCAAUGCAUCCCACCACAUGAUGAUGCCUGAAGAGCCGUGGUUUUUUG,-6.13
11,GACCAAUCUGCCCUCAGAGCUCGAGAACAUCUUCGGAUGCAGAGGAGGCAUGCUUCGGUGGCGCGAUAGCGCCAACGUCCUCAACCUCAAAUGCAUCCCACCACAUGAUGAUGCCUGAAGAGCCUUGGUUUUUUG,-5.25
12,GACCAAUCUGCCCUCAGAGCUCGAGAACAUCUUCGGAUGCAGAGGAGGCAUGCUUCGGUAGCGCGAUAGCGCCAACGUCCUCAACCUCCAAUGCAUCCCACCACAUGAUGAUGCCUGAAGAGCUUUGGUUUUUUG,-4.52
13,GACCAAUCUGCCCUCAGAGCUCGAGAACAUCUUCGGAUGCAGAGGAGGCAGACUUCGGUGGCGAGAUAGCGCCAACGUCCUCAACCUCCAAUGCAUCCCAACACAUGAUGAUGCAUGAAGAGCCUUGGUUUUUUG,-6.42
14,GACCAAUCUGCCCUCAGAGCUCGAGAACAUCUUCGGAUGCAGAGGAGGCAUGCUUCGGUUGCGCGAUACCGCGAACGUCCUCAACCUCCAAUGCAUCCCACCACAUGAUGAUGCCUGAAGAGCCUUGGUUUUUUG,-4.99
15,GACCAAUCUGCCCUCAGAGCUCGAGAACAUCUUCGGAUGCAGAGGAGGCAGACUUCGGUGGCGCGAUAGUGCCAACGUCCUCAACUUCCAAUGAAUCCCCUCACAUGAUGAUGGCUGAAGAGCCUUGGUUUUUUG,-5.67
16,GACCAAUCUGCCCUCAGAGCUCGAGAACAUCUUCGGAUGCAGAGGAGGCAUGCUUCGGUGGCGCGAUAGCGCCAACGUCCUCAACCUCCAAUGCAUCCCACCACAUGAUGAUGCCUGAACAGCCUUGGUUUUGUG,-1.86
17,GACCAAUCUGCCCUCAGAGCUCGAGAACAUCUUCGGAUGCAGAGGAGGCAUGCUUCGGUGGGGCGAUAGCGCCAACGUCCUCAACCUCCAAUGCAUCCCACCACAUGAUGAUGCCUGAAGAGCCUUGGUUUUUUG,-5.98
18,GACCAAUCUGCCCUCAGAGCUCGAGAACAUCUUCGGAUGCAGAGGAGGCAUGCUUCGGUGGAGCGAUAGCGCCAACGUCCUCAACCUCCAAUGCAUCCCACCACAUGAUGAUGCCUGAAGAGCCUUGGUUUUUUG,-5.43
19,GACCAAUCUGCCCUCAGAGCUCGAGAACAUCUUCGGAUGCAGAGGAGGCAUGUUUCGGUGGCGCGAUAGCGCCAACGUCCUCAAACUCCAAUCCAUCCCACCACAUGAUGAUGCCUGAAGAGCCUUGGUUUUUUG,-5.05
20,GACCAAUCUGCCCUCAGAGCUCGAGAACAUCUUCGGAUGCAGAGGAGGCAUGCUUCGGUGGCGCGAUAGCACCAACGUCCUCAACCUCCGAUGCAUCGCACCACAUGAUGAUGACUGAAGAGUCUUGGUUUUUUG,-6.6
21,GACCAAUCUGCCCUCAGAGCUCGAGAACAUCUUCGGAUGCAGAGGAGGCAUGCUUCGGUGCCGCGAUAGCGCCAACGUCCUCAACCUCCAAUGCAUCCCACCACAUGAUGAUGCCUGAAGAGCCUUGGUUUUUUG,-3.56

row,Variant,polymerase ribozyme fitness (log ratio)
1,GACCAAUCUGCCCUCAGAGCUCGAGAACAUCUUCGGAUGCAGAGGAGGCAUGGUUCGGUGGCGCGAUAGCGCCAACGUCCUCAACCUCCAAUGCAUCCCACCACAUGAUGAUGCCUGAAGAGCAUUGGUUUUAGG,-1.64
2,GACCAAUCUGCCCUCAGAGCUCGAGAACAUCUUCGGAUGCAGAGGAGGCAUGCUUCGGUGGCGCGAUAGCGCCAACGUCCUCAACCACCAAUGCAUCCCACCACAUUAUGAUGCAUGAAGUGCCUUGGUUUUUUG,-7.71
3,GACCAAUCUGCCCUCAGAGCUCGAGAACAUCUUCGGAUGCAGAGGAGGCAUGCUUCGGUGGCGCGAUAGCGCCAACGUCCUCAACCUCCAAUGCAUCCCACCACAUGAUGAUGCCUGAAGAGCCUUAGUUUUUUG,-4.52
4,GACCAAUCUGCCCUCAGAGCUCGAGAACAUCUUCGGAUGCAGAGGAGGCAUGCUUCGGUGGCGCGAUAGCGUCAACGUCCUCAACCUCCAAUGCAUCCCACCACAUGAUGAUGCCUGAAGAGCCUUGGUUUUUUG,-3.99
5,GACCAAUCUGCCCUCAGAGCUCGAGAACAUCUUCGGAUGCAGAGGAGGCAGACUUCGGUGGCGCGAUAGUGCCAACGUCCUCAACCUCCAAUGCAUCCCACCACAUGAUGAUGCCUGAAGAGCCUUGGUUUUUUG,-0.605
6,GACCAAUCUGCCCUCAGAGCUCGAGAACAUCUUCGGAUGCAGAGGAGGCAUGCUUCGGUGGCGCGAUAGCGCCAACGUCUUCAACCUACAAUGCAUCCCACCACAUGAUGAUGCCUGAGGAGCCUUGGUUUUUUG,-1.11
7,GACCAAUCUGCCCUCAGAGCUCGAGAACAUCUUCGGAUGCAGAGGAGGCAUGCUUCGGUGGCGCGAUAGCGCCAACGUCCUCAACCUCCAAUGAAUCCCACCACAUGAUGAUGCCUGAAGAGCCUUGGUUUUGUG,-3.88
8,GACCAAUCUGCCCUCAGAGCUCGAGAACAUCUUCGGAUGCAGAGGAGGCAGACUUCGGUGGUGCGAUAGCGCCAACGUCCUCAACCUCCAAUGCAUCCCACCACAUGAUGAUGCCUGAAGAGCCUUGGUUUUUUG,-0.528
9,GACCAAUCUGCCCUCAGAGCUCGAGAACAUCUUCGGAUGCAGAGGAGGCAUGCUUCGGUGGCGCGAUAGCGCCAACGUCCUCAACCUCCAAUGCAUCCCACCACAUGAUAAUGCCUGAAGAGCCUUGGUUUUUUG,-5.3
10,GACCAAUCUGCCCUCAGAGCUCGAGAACAUCUUCGGAUGCAGAGGAGGCAUGCUGCGGUGGCGCGAUAGCGCCAACGUCCUCAACCUCCAAUGCAUCCCACUACAUGAUGAUGCCUGAAGAGCCUUGGUUUUUUG,-6.73
11,GACCAAUCUGCCCUCAGAGCUCGAGAACAUCUUCGGAUGCAGAGGAGGCAUGCUUCGGUGGCGCGAUAGCGCCAACGUCCUAAACCUCCAAUGCCUCCCACCACAUGAUGAUGCCUGAAGAGCUUUGGUUUUUUG,-4.21
12,GACCAAUCUGCCCUCAGAGCUCGAGAACAUCUUCGGAUGCAGAGGAGGCAUGCUUCGGUGGCGCGAUAGCGCAAACGUCCUCAACCUCCAAUGCAUCCCACCACAUGAUGAUGCCUAAAGAGCCUUGGUUUUUUG,-4.4
13,GACCAAUCUGCCCUCAGAGCUCGAGAACAUCUUCGGAUGCAGAGGAGGCAGACUUCGGUGGCGCGAUAGCGCCAACGUCCUCAACCUCCAAUGCAUCCCACCACAUGAUGAUGCCUGAAGAGCCUUGGUUUUUUG,-0.286
14,GACCAAUCUGCCCUCAGAGCUCGAGAACAUCUUCGGAUGCAGAGGAGGCAGACUUCGGUGGCGCGAUAGCGCCAACGUCCUCAACCUCCAAUGCCUCCCACCACAUGAUGAUCCCUGAAGAGCCUUGGUUUUUUG,-3.3
15,GACCAAUCUGCCCUCAGAGCUCGAGAACAUCUUCGGAUGCAGAGGAGGCAGACUUCGGUGGCGCGAUAGCGGCAACGUCCUCAACCUCCAAUGCAUCCCACCACAUGAUGAUGCCUGAAGAGCCUUGGUUUUUUG,-0.491
16,GACCAAUCUGCCCUCAGAGCUCGAGAACAUCUUCGGAUGCAGAGGAGGCAUGCUUCGGUGGCGAGAUACCGCCAACGUCCUCAACCUCCAAUGCAUCCCACCACAUGAUGAUGCCUGAAGAGCCUUGGUUUUUUG,-3.5
17,GACCAAUCUGCCCUCAGAGCUCGAGAACAUCUUCGGAUGCAGAGGAGGCAUGCUUCGGUGGCGCGAUAGCGCCAACGUCCUUAACCUCCAAUGCAUCCCACCACAUGAUGAUGCCUGAAGAGCCUUGGUUUUUUG,-1.77
18,GACCAAUCUGCCCUCAGAGCUCGAGAACAUCUUCGGAUGCAGAGGAGGCAGACUUGGGUGGCGCGAUAGCGCCAACGUCCUCAACCUCCAAUGCAGCCCACCACAUGAUGAUGCCUGAAGAGCCUUGGUUUUUUG,-1.35
19,GACCAAUCUGCCCUCAGAGCUCGAGAACAUCUUCGGAUGCAGAGGAGGCAGACUUCGGUGGCGCGAUAGCGCCAACGUCCUCAACCUCCGAUUCAUCCCACCACAUGAUGACGCCUGACGAGCCUUGGUUUUUUG,-1.55
20,GACCAAUCUGCCCUCAGAGCUCGAGAACAUCUUCGGAUGCAGAGGAGGCAUGUUUCGGUGGCGCGAUAGCGCCAACGUCCUCAACCUCCAAUGCAUCCCACCACAUGAUGAUGCCUGAAGAGCCUUGGUUUUUUG,-2.7
21,GACCAAUCUGCCCUCAGAGCUCGAGAACAUCUUCGGAUGCAGAGGAGGCAUGCUUCGGGGGCCCGAUAGCGCCAACCUCUUCAACCCCCAAUGCAUCCCACCACAUGAUGAUGCCUGAAGAGCGUUGGUUGUUUG,-0.602
